# According to patent US20220273720A1:
# Target: CD3 on non-edited CD3+ T cells of a human donor (human) (UniProt P07766)
# Test: cell-based or functional assay
# Sequence of CD3 on non-edited CD3+ T cells of a human donor (human) (P07766 23-207, chain 1 of 3): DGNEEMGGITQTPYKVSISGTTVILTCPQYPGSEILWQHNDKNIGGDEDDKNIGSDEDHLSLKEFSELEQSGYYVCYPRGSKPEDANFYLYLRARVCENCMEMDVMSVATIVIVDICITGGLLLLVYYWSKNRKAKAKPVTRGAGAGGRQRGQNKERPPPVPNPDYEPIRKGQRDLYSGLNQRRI
# Sequence of CD3 on non-edited CD3+ T cells of a human donor (human) (P09693 23-182, chain 2 of 3, further chain): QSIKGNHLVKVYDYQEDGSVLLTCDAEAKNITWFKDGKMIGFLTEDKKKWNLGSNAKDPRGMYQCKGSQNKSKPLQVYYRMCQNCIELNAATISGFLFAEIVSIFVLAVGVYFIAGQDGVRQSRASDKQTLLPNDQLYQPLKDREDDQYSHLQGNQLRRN
# Sequence of CD3 on non-edited CD3+ T cells of a human donor (human) (P04234 22-171, chain 3 of 3, further chain): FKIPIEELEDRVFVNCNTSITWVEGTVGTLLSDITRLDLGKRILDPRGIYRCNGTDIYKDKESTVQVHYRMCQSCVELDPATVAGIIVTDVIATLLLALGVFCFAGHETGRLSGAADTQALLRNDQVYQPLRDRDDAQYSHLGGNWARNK
substance,measurement,value
foralumab biosimilar (Creative Biolabs) (antibody),"percent killing in a complement-dependent cytotoxicity (CDC) assay on non-edited CD3+ T cells, 24 h, 30% human serum, antibody at 30-4000 ng/ml",65%
